# Results reported in the DeepSol protein solubility set.
# Test: soluble on expression in E. coli; label from the status in PepcDB or PDB records
row,Sequence,soluble on expression in E. coli
1,MSLKYEKIAFFRFFGRLNDFFRNSERIKTHRFTGFQTVKDRIEALGVPHVEVSLITLNGKPVGFDHMVEDGELFFVYPEFQNIEIPEDWLVTPRYIGEPRFVLDIHLGKLARLLRMLGFEAVFGEESDEKLCWMAVKKKAILLSRDTGLLKRKELVFGYYVRNTDPKEQLVEVVERYDLKKWMKPFTRCIECGVELEEVPKEAVKNRVPPKVYGFFNEFARCPVCGRIYWKGSHYDHMVEFIKSNINKGEGHHHHHH,soluble
2,SQVDVKDCANHEIKKVLVPGCHGSEPCIIHRGKPFQLEAVFEANQNTKTAKIEIKASIDGLEVDVPGIDPNACHYMKCPLVKGQQYDIKYTWNVPKIAPKSENVVVTVKVMGDDGVLACAIATHAKIRD,soluble
3,MSLTIGIWILGDQLWSGQTALKSHQGDRSQVPVLLIESAEFARQRPYHRQKLVLVWSAMRHFAEDLRAEGWSVTYEIAADFLTPLHHWLKTQGVSHLQVMAPGDRPFEAWLKSLTLPCELTLLPNNHFLWSREDFSAWAGDRKRLLLEDFYRAGRKRWQILMVDDQPVGGRWNFDQDNRKPAKKNLSPPKPLSFPPDDITQQVIERIEQLNLPGYGQLSGFQWGEGHHHHHH,soluble
4,MGSDKIHHHHHHVINLKELKILHTSDWHLGVTSWTSSRPVDRREELKKALDKVVEEAEKREVDLILLTGDLLHSRNNPSVVALHDLLDYLKRMMRTAPVVVLPGNHDWKGLKLFGNFVTSISSDITFVMSFEPVDVEAKRGQKVRILPFPYPDESEALRKNEGDFRFFLESRLNKLYEEALKKEDFAIFMGHFTVEGLAGYAGIEQGREIIINRALIPSVVDYAALGHIHSFREIQKQPLTIYPGSLIRIDFGEEADEKGAVFVELKRGEPPRYERIDASPLPLKTLYYKKIDTSALKSIRDFCRNFPGYVRVVYEEDSGILPDLMGEIDNLVKIE,soluble
5,MNDHKALKIFLMAAEKRNFAQVARELSMTAAGVTRAIAALECDLGVQLFVRTTRQVSLTTDGAVFAAQIQPAVEALENARRDVRNAHKADEGRLRISAPTWLGKTVLPPILSGFRELYPKMCFEISLSDGLVNIVDDDYDLAIRISSAPSDKFTIWRKIRAVPRILVAAPGSRFTQMKHPSDLTPDDCLAYSGESRRENWILSDGGSSITITAGRAFSANNGEVLADMAADGAGVAMLPGFHIAEHIRSGRLVHVLPGWAPPELWLTLYYPPYQTLPPRIATFSKFFEEQLTAHMVALD,not soluble
6,MSLEAKEVYFEQRGDIGYIVINNAPENMITLSLLEEFSNIVENSIINSKIKGIIITGKGRHFSSGTDIGKLKQTILKTAYIKENNSLVECSEFKRYIDALSSLYSINIPVISAINGLCIGSGFEIALHSHIRICSKGSIVGSPESTFGLMPGLGGISRYVQLCGLGKALELVLSGDLLSVNEALEIGIIDKIVKKNEISDYCNRLMEYILKNEMIYSKSKINSYIKLCDEGHHHHHH,soluble
7,MAHHHHHHMSLQAGGVVNGVIPGVVPPHDRTQEVCKYFVNGGCLRGANCPYLHELPDERHLDVNGLGFILNPNVHNAQKTVASPQTQVAASTPSQPLKASGSSFTMMLNNQNASQSRVFSPTKAAKHQPPSMSGSSSASPQTMQMGKLPAPPKYNPPEPYLELNLPPALAFPLKVPAKDTTATLTHLMLQN,not soluble
8,MGSDKIHHHHHHMISNEQYDYLRAHPTFERLTRDSFDQLAKHIRFRKIPKGQIFFYAEDPRDYLFVLYKGYARIEQYDETDSFTYLDYIRQGGAFPFGDMFQDKPYHYTAIAITDLEYFIVPMVLFETLSKINPSQMVYICQKLSKVLRFQELRLRNAMRSKASDRVVQALALLYWDMCQRDQFATLPFEIHIQEISRLAATTRETVSHVLKQLKQDGKIAYSHKQLTYLDIDYFLENLTETH,not soluble
9,MFFCTILSFFDFGRYFMEKNQYEIYHENKKHTPNDFPYNTYLCSIPLDFKSVNLHWHNEVELIVIKKGQGLVNVNLVTYTVNAGDVVFVFPGQLHSISQKDYSIMEYENILFKSSLLKSSGYDLCNDKFIQPLLSGNLNIYPVINSNFDFHDSLYSLINEIDKLCDKRPYAYQLAVKSYLFQIFYLLISNCGLNQIKPISKKALEK,not soluble
10,MPGTKRFQHVIETPEPGKWELSGYEAAVPITEKSNPLTQDLDKADAENIVRLLGQCDAEIFQEEGQALSTYQRLYSESILTTMVQVAGKVQEVLKEPDGGLVVLSGGGTSGRMAFLMSVSFNQLMKGLGQKPLYTYLIAGGDRSVVASREGTEDSALHGIEELKKVAAGKKRVIVIGISVGLSAPFVAGQMDCCMNNTAVFLPVLVGFNPVSMARNDPIEDWSSTFRQVAERMQKMQEKQKAFVLNPAIGPEGLSGSSRMKGGSATKILLETLLLAAHKTVDQGIAASQRCLLEILRTFERAHQVTYSQSPKIATLMKSVSTSLEKKGHVYLVGWQTLGIIAIMDGVECIHTFGADFRDVRGFLIGDHSDMFNQKAELTNQGPQFTFSQEDFLTSILPSLTEIDTVVFIFTLDDNLTEVQTIVEQVKEKTNHIQALAHSTVGQTLPIPLKKLFPSIISITWPLLFFEYEGNFIQKFQRELSTKWVLNTVSTGAHVLLGKILQNHMLDLRISNSKLFWRALAMLQRFSGQSKARCIESLLRAIHFPQPLSDDIRAAPISCHVQVAHEKEQVIPIALLSLLFRCSITEAQAHLAAAPSVCEAVRSALAGPGQKRTADPLEILEPDVQ,soluble
11,RPVGTIFVIGDTKEVMKHSHQLVPNPFKGHKINIMNPKVKPIIKEFSFLDGAFIISSTGRVVAAGRYLDVDPKKLEIDIPQGLGSRHLASAAITKVTKAIAITLSESGVIRVFKDGK,soluble
12,MGSDKIHHHHHHVRVDLRHISDEKKLSYSDVLWQYVKQDFLWRINNAGLGNVLWLQKPYFATGEKLAFYYVYGSPGGRAEDNGTPFDVLRNIIIGNAGLNSHSDVVWTNAELSKQAAKVSANEPDASDMQPLIHTWNLSAMCDGGEVPFAVRLERLNEADAGVPMTKNIVFMNSFYGDADVCIFSPESRLGEQLFEIMDKLELVSDMKPYGDAYEILKRYSVSGRQIIDIFKVRAKNKPKTVSMHRLEQVYGYRSYAYMRRRWERYCKRLTRQQMAYANAGWEETLDLILDFLTPVWSAFCNDEIFYDDWMPELGRFLG,not soluble
13,MSLQLKSEKARIILSGEPTLLIDKGKIDISALKSQRLNINDLMEELRLKNYFNVEDIEYAILETSGQISLIPKTHLTNATKEDLNLKVKQENVPITIILDGKVNTDNIKYLNKDADWLMKELKKNKIDSPKDVFLALIDSKGKFYYQKYNNEGHHHHHH,not soluble
14,MDYTIVVSATASDAAPLKFLAPYSGCAIGEHFLDNGKHALIIFDDLSKKAANCHVVCRTDEIELDILNRMEEDIKLHPLTWYDIWSSLETKIKVVRARIPKSLSRR,not soluble
15,MGSDKIHHHHHHLFTSLVKQAEEMGLLDLSSVAIDATKVEAYEKSVPRKNIIQNGNAADWGIKSDTNGNPIKWFGYKLHIGTDVRSGLPIAMKVTPANYSDSSVALELVEKCCANTQSKIVYFLMDAGYDHREIYSVIRDKYHAQAIIALNKRGAKQPPEGFDWDGTPICSARYRMVYWGSYQGVNKFRCPHIMGKCDCPFGSAWCSDSNYGMVVKTKVKDDPRLFSSPHRGSANWQKQYNLRTYSERCFSRFKENLGLEDGLNVRKITKVETHAYLCAITMIAAVIAINQDSSTRSSAA,not soluble
16,MRKKLKAVLFDMDGVLFNSMPYHSEAWHQVMKTHGLDLSREEAYMHEGRTGASTINIVFQRELGKEATQEEIESIYHEKSILFNSYPEAERMPGAWELLQKVKSEGLTPMVVTGSGQLSLLERLEHNFPGMFHKELMVTAFDVKYGKPNPEPYLMALKKGGLKADEAVVIENAPLGVEAGHKAGIFTIAVNTGPLDGQVLLDAGADLLFPSMQTLCDSWDTIML,not soluble
17,MIKRPIHLSHDFLAEVIDKEAITLDATMGNGNDTVFLAKSSKKVYAFDIQEEAIAKTKAKLTEQGISNAELILDGHENLEQYVHTPLRAAIFNLGYLPSADKTVITKPHTTIKAIKNVLDILEVGGRLSLMVYYGHDGGKSEKDAVIAFVEQLPQNNFATMLYQPLNQVNTPPFLIMVEKLQSYENEV,not soluble
18,MGSDKIHHHHHHMDADELELKGHLKKLKKEELLRRKQLKESNLQKRELEYNNASKNTSIYISGLPTDKTTKEGLTEQFCKYGMIRTNRDGEPLCKLYVNDKGAFKGDALITYSKEESVTLAIEMMNESIFLGKQIRVERAQFQNKEGDNMHGKENDLKEFNGPEPPIKRLKKAKSEGEGEVIDYNDDESLAKADRTVIFANVFNIYKSYTNDDINDIQEDLLEGCEEIGQVDSISVSPNKGEATVVFKNNKVALQCCKIMTGRYFDGQKLLAFISGDENTSSTSDKNEDSEVEDDLI,not soluble
19,MGSDKIHHHHHHMKQLFDNVSAMCSKLTTKKYSTSFSLGIHFLHKKLHDPVYAIYGFVRFADEIVDSFHGYDKKRLMAQFRRDTAFALQDKISLNPILNSFQHVVHTYNIEWELIDTFLKSMEMDLDQSAHNEQSYKEYIIGSAEVVGLMCLRVFVKGDVDMYEKQKPHAMSLGAAFQKVNFLRDAKEDFDSLGRTYFPDVSMEKFDRHIKQNIESDIEKDFQHALIGIKQLPAESRLGVYLAYIYYKNLFHKIKSIPPERMLKERIRIPNLNKFALLFQCYFRNQFNIL,not soluble
20,AEKRNIFLVGPMGAGKSTIGRQLAQQLNMEFYDSDQEIEKRTGADVGWVFDLEGEEGFRDREEKVINELTEKQGIVLATGGGSVKSRETRNRLSARGVVVYLETTIEKQLARTQRDKKRPLLHVETPPREVLEALANERNPLYEEIADVTIRTDDQSAKVVANQIIHMLESN,soluble
21,MGSDKIHHHHHHMTGIALSPIGALWGIVGAKTHGTVEMGAALTHRGCYMAMEEGPTFSFGARHSAEIWPISVDDDIAVVYSGFPFVVDEETRTPRYLSAEDIRTEFLRFGADFFRVLCGHYAIAVYCYTRHRLILVRDAFGVQSLSWASSNENFAFSTEYKALLSLPWVERNLDHDAARGFVDDGWAPAGRTFLRHISMVLPGSILIWQNGNLETIHLRQDLCKTRPPFRPISVRHVEMTVRETIGWQANDFSPRYGVMLSSGVDSAVIAATLRRIRRDSEIHTFTVGYGYDDPEIIGASATASVLGTQHHEIIVRPDALTALLTDTIVAVDNPGGYEEFPCLYALHQEARQFVDIIFSGNAADTLFAGMPYHRDLLSTDDAIYRRLCNDLTVRDERLAAQELLAGRHGLNFRMPYAERILIDLALEIPDFQKLSPENDKIIFREAARQILPDEITMRPKRIQHLLYDDSMCSWLAERIEWICSSSLLRTHSLGELEGAAILPPRNLELTEESFKAAWNVVALATWASIYLA,not soluble
22,MDKIIKSIAQSGAFRAYVLDSTETVALAQEKHNTLSSSTVALGRTLIANQILAANQKGDSKITVKVIGDSSFGHIISVADTKGHVKGYIQNTGVDIKKTATGEVLVGPFMGNGHFVTIIDYGTGNPYTSTTPLITGEIGEDFAYYLTESEQTPSAIGLNVLLDENDKVKVAGGFMVQVLPGASEEEIARYEKRLQEMPAISHLLASKNHVDALLEAIYGDEPYKRLSEEPLSFQCDCSRERFEAALMTLPKADLQAMIDEDKGAEIVCQFCGTKYQFNESDLEAIISDKA,not soluble
